Assay results published in patent US20180085455A1 (ISU ABXIS, published 2018).
Substitutions are numbered along the chain they refer to.

B1: 442P (antibody, V domains shown)
VH: EVQLLESGGGLVQPGGSLRLSCAASGFTFSDYDMSWVRQAPGKGLEWVSSIYPDSGSTYYADSVQGRFTISRDNSKNTLYLQMNSLRAEDTAVYYCAKDLHMGPEGPFDYWGQGTLVTVSS
VL: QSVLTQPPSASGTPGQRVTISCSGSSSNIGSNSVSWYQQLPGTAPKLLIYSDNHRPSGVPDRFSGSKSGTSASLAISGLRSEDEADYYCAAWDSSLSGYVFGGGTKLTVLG
notes: IgG1 (Selexis 085 vector, CHO)
B2: 442S5 (antibody, V domains shown)
VH: B1 VH with S50I, Y52E, T58I
VL: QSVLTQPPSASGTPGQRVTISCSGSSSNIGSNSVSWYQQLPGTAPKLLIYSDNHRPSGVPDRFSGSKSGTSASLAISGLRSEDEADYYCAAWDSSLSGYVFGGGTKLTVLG
notes: as for B1
B3: 442M6 (antibody, V domains shown)
VH: B1 VH with Y52E, Y59D, L100R, G103W
VL: QSVLTQPPSASGTPGQRVTISCSGSSSNIGSNSGSWYQQLPGTAPKLLIYADNWRPSGVPDRFSGSKSGTSASLAISGLRSEDEADYYCAAWDSSLSGYVFGGGTKLTVLG
notes: as for B1
B4: 442S1 (antibody, V domains shown)
VH: B1 VH with S50T, Y52D, P53L, T58I
VL: B3 VL with G34V, A51S, W54H, A90Q, A91G, S94T, Y99H
notes: as for B1
B5: 472P (antibody, V domains shown)
VH: EVQLLESGGGLVQPGGSLRLSCAASGFTFSDYDMSWVRQAPGKGLEWVSGISYDGGNTYYADSVKGRFTISRDNSKNTLYLQMNSLRAEDTAVYYCARDPSWCLQDLCYYADGMDVWGQGTLVTVSS
VL: B3 VL with G34V, N53S, W54N, A90G, A91S, S94Y
notes: IgG1 (Selexis 085 vector, CHO); also called anti-ErbB3 lead antibody 472P
B6: 472S2 (antibody, V domains shown)
VH: B5 VH with D31W, M34L, S35A
VL: B3 VL with G34V, N53S, W54N, A90G, A91S, S94Y
notes: as for B1
B7: 472M1 (antibody, V domains shown)
VH: B5 VH with D31W, M34L
VL: B3 VL with G34V, N53S, W54N, A90G, A91S, S94Y
notes: as for B1
B8: 442M8 (antibody, V domains shown)
VH: B1 VH
VL: B3 VL with G34V, A51S, W54H, A90H, S97Y, G98V, Y99D
notes: as for B1
B9: 442S2 (antibody, V domains shown)
VH: B1 VH with Y59D
VL: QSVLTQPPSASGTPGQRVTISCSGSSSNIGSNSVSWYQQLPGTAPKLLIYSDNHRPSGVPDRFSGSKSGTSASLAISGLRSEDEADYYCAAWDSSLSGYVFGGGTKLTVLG
notes: as for B1
B10: 442M10 (antibody, V domains shown)
VH: B1 VH with Y59D, G103W
VL: B3 VL with G34V, W54F
notes: as for B1
B11: 442S6 (antibody, V domains shown)
VH: B1 VH with Y59D, L100R, G103W
VL: B3 VL
notes: as for B1
B12: 442M7 (antibody, V domains shown)
VH: B1 VH with S50T, Y52E, G66S
VL: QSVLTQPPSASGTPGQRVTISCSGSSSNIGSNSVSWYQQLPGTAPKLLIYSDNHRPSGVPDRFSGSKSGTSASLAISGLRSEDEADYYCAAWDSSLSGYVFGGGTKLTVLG
notes: as for B1
B13: 442S9 (antibody, V domains shown)
VH: B1 VH with L100R, G103W
VL: B3 VL with W54H
notes: as for B1
B14: 442S4 (antibody, V domains shown)
VH: B1 VH with Y52E, S55F, T58S, Q65R
VL: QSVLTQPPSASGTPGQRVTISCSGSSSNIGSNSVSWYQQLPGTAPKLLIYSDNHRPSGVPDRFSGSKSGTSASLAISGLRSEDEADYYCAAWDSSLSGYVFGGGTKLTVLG
notes: as for B1
B15: 442M11 (antibody, V domains shown)
VH: B1 VH with S50T, Y52E, S55Y, Y59L
VL: B3 VL with G34V, A51S, W54H, A90H, Y99D, V100F
notes: as for B1
B16: 442M5 (antibody, V domains shown)
VH: B1 VH with S50T, Y52D, P53L, T58I
VL: B3 VL with G34V, A51S, W54H, A90H, S97W, Y99D
notes: as for B1
B17: 442M4 (antibody, V domains shown)
VH: B1 VH with S50T, Y52D, P53L, T58I
VL: B3 VL with G34V, A51S, W54H, A90V, A91G, S97Y, Y99H
notes: as for B1
B18: 442S10 (antibody, V domains shown)
VH: B1 VH with L100R, G103W
VL: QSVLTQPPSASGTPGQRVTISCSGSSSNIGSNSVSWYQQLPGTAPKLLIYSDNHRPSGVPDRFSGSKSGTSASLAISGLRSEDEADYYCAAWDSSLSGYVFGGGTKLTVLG
notes: as for B1
B19: 442M3 (antibody, V domains shown)
VH: B1 VH with L100R, G103W
VL: B3 VL
notes: as for B1
B20: 451P (antibody, V domains shown)
VH: EVQLLESGGGLVQPGGSLRLSCAASGFTFSDYDMSWVRQAPGKGLEWVSAIYYDSGSIYYADSAKGRFTISRDNSKNTLYLQMNSLRAEDTAVYYCAKDRLFVSDSTFDYWGQGTLVTVSS
VL: QSVLTQPPSASGTPGQRVTISCSGSPSNIGNNSVTWYQQLPGTAPKLLIYYDSHRPSGVPDRFSGSKSGTSASLAISGLRSEDEADYYCGSWDASLNGYVFGGGTKLTVLG
notes: IgG1 (Selexis 085 vector, CHO); also called anti-ErbB3 lead antibody 451P
B21: 451M4 (antibody, V domains shown)
VH: B20 VH with D31Y, V103A
VL: B20 VL
notes: as for B1
B22: 451M6 (antibody, V domains shown)
VH: B20 VH with D31H, V103E
VL: B20 VL
notes: as for B1
B23: 472S1 (antibody, V domains shown)
VH: B5 VH with D31W, S35T
VL: B3 VL with G34V, N53S, W54N, A90G, A91S, S94Y
notes: as for B1
B24: 472S4 (antibody, V domains shown)
VH: B5 VH with D31W, M34I, S35A
VL: B3 VL with G34V, N53S, W54N, A90G, A91S, S94Y
notes: as for B1
B25: 472S3 (antibody, V domains shown)
VH: B5 VH with D31W
VL: B3 VL with G34V, N53S, W54N, A90G, A91S, S94Y
notes: as for B1
B26: 451M2 (antibody, V domains shown)
VH: B20 VH with V103A
VL: B20 VL
notes: as for B1
B27: 451M7 (antibody, V domains shown)
VH: B20 VH with D31Y, V103E
VL: B20 VL
notes: as for B1
B28: 451M5 (antibody, V domains shown)
VH: B20 VH with V103E
VL: B20 VL
notes: as for B1
B29: 451M3 (antibody, V domains shown)
VH: B20 VH with D31H, V103A
VL: B20 VL
notes: as for B1
B30: 451M1 (antibody, V domains shown)
VH: B20 VH with V103M
VL: B20 VL
notes: as for B1

biological target: ErbB3 on cancer cells (UniProt P21860 20-1342, limits assumed); test: cell-based or functional assay

Inhibition of ErbB3 phosphorylation, IC50 (HRG-stimulated MCF7 cells) [nM]	Inhibition of Akt phosphorylation, IC50 (HRG-stimulated MCF7 cells) [nM]	Binder
1.05		B1
0.0854	0.167	B2
0.271	0.304	B3
0.222	0.239	B4
1.45		B5
0.148	0.195	B6
0.276	0.246	B7

biological target: T1, recombinant human ErbB3 protein (R&D systems) (human, UniProt P21860 20-643); test: BLI (Octet QK384), human ErbB3 immobilized on AR2G sensor, IgG at 12.5-50 nM
T1 construct: Bought recombinant protein; also called HER3
Description: After activation of carboxyl groups in 20 mM of 1-ethyl-3-(3-dimethylaminopropyl)carbodiimide hydrochloride (EDC) and 40 mM of N-hydroxysulfosuccinimide (sulfo-NHS) solution on an AR2G sensor (ForteBio), 10 μg/mL of human ErbB3 protein solution diluted with 10 mM of sodium acetate (pH 4.0) (ForteBio) was added to immobilize human ErbB3 protein onto the AR2G sensor. The AR2G sensor to which the human ErbB3 protein was immobilized and was treated with 1 M of ethanolamine (ForteBio) to inactivate the remaining unreacted carboxyl groups.

Kd [nM]	koff [s⁻¹]	kon [M⁻¹ s⁻¹]	Binder
0.283	0.000352	1.25e+06	B1
0.00256	2.23e-06	870000	B8
0.0711	8.28e-05	1.17e+06	B9
0.0175	2.74e-05	1.57e+06	B2
< 0.001	< 1e-07	471000	B10
< 0.001	< 1e-07	872000	B11
0.0291	4.55e-05	1.56e+06	B12
0.0716	5.87e-05	821000	B13
0.0371	5.47e-05	1.48e+06	B14
0.00543	8.09e-06	1.49e+06	B15
< 0.001	< 1e-07	665000	B16
< 0.001	< 1e-07	573000	B17
0.0201	1.95e-05	969000	B3
0.114	9.29e-05	814000	B18
< 0.001	3.94e-07	522000	B4
0.0034	2.62e-06	771000	B19
0.284	0.000508	1.79e+06	B5
0.0535	6.33e-05	1.18e+06	B20
0.00612	1.23e-05	2.01e+06	B21
0.00347	4.17e-06	1.2e+06	B22
< 0.001	3.33e-07	649000	B23
< 0.001	< 1e-07	1.07e+06	B6
0.00941	1.09e-05	1.15e+06	B24
< 0.001	1.43e-07	522000	B25
0.0126	1.56e-05	1.24e+06	B26
0.00492	6.63e-06	1.35e+06	B27
0.0217	3.29e-05	1.52e+06	B28
0.0125	1.74e-05	1.39e+06	B7
< 0.001	2.3e-07	1.87e+06	B29
0.0248	3.08e-05	1.24e+06	B30
